Source: PMC10599630, “Human interleukin-12α and EBI3 are cytokines with anti-inflammatory functions” (Science Advances, 2023)

B1: IL-12α^C96S,His (natural protein, human, UniProt P29459 23-219, looked up)
chain: RNLPVATPDPGMFPCLHHSQNLLRAVSNMLQKARQTLEFYPCTSEEIDHEDITKDKTSTVEACLPLELTKNESSLNSRETSFITNGSCLASRKTSFMMALCLSSIYEDLKMYQVEFKTMNAKLLMDPKRQIFLDQNMLAVIDELMQALNFNSETVPQKSSLEEPDFYKTKIKLCILLHAFRIRAVTIDRVMSYLNAS
notes: human interleukin-12 subunit alpha (IL-12α/p35), UniProt P29459, with C96S (the cysteine of the interchain disulfide bond of IL-12); C-terminal TEV cleavage site followed by a GG-linker and His-tag; pcDNA3.4TOPO vector; also called IL-12αC96S with His-tag; source: ExpiCHO, co-transfected with IL-12β^C199S; not shown: His-tag, C-terminal, kept
B2: murine IL-27α (natural protein, UniProt Q8K3I6 29-234, looked up)
chain: FPTDPLSLQELRREFTVSLYLARKLLSEVQGYVHSFAESRLPGVNLDLLPLGYHLPNVSLTFQAWHHLSDSERLCFLATTLRPFPAMLGGLGTQGTWTSSEREQLWAMRLDLRDLHRHLRFQVLAAGFKCSKEEEDKEEEEEEEEEEKKLPLGALGGPNQVSSQVSWPQLLYTYQLLHSLELVLSRAVRDLLLLSLPRRPGSAWDS
notes: mouse interleukin-27 subunit alpha (IL-27α/p28), bought recombinant protein; also called mIL-27α; source: bought: R&D Systems, 7430-ML-010

Legend:
[1] = target: T1, recombinant human IL-12β^C199S (previously purified) (human, UniProt P29460 23-328, C199S); assay: pull-down; called co-IP with purified proteins: 1 μg of one protein and an equimolar amount of the other in 200 μl PBS, 1 hour at room temperature; Ni-nitrilotriacetic acid beads 2 hours at 4°C; wash PBS with 20 mM imidazole, elution 500 mM imidazole; settings: both partners purified
T1 construct: human interleukin-12 subunit beta (IL-12β/p40), UniProt P29460, with C199S; it may be the same construct as m7; also called p40 C199S; source: previously purified in our laboratory
T1 sequence (looked up): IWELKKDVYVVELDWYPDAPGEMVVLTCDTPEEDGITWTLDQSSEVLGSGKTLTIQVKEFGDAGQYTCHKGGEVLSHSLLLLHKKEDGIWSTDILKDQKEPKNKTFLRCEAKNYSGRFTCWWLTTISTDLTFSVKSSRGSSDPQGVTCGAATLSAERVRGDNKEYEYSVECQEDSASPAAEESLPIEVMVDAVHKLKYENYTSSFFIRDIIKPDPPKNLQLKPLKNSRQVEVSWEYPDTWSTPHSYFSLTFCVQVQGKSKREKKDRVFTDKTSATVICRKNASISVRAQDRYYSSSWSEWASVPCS

[2] = target: T2, EBI3 (purified from Expi293) (human, UniProt Q14213 21-229); assay: as above; settings: both partners purified
T2 construct: human EBI3, UniProt Q14213; untagged; Untagged; pHEK293 ultra expression vector 1; also called recombinant human EBI3; source: Expi293, co-transfected with IL-27α^L162C,His
T2 sequence (looked up): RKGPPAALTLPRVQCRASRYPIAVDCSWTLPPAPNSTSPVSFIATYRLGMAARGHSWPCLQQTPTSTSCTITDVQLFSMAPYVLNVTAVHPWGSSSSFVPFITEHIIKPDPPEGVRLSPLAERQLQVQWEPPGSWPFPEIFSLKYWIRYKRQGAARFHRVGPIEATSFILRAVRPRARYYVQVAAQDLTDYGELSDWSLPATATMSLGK

Row | Binder | binding result [1] | binding result [2]
1 | B1 | binds | 
2 | B2 |  | binds
